The target in one assay is T1, Smc1 (S. cerevisiae (budding yeast), UniProt P32908 1-1225).
T1 construct: Smc1, budding yeast; the Smc1 chain of m1; Stood in the cross-linking sample as a chain of cohesin; source: purified as part of cohesin, as previously described (Minamino et al. 2018)
T1 sequence (looked up): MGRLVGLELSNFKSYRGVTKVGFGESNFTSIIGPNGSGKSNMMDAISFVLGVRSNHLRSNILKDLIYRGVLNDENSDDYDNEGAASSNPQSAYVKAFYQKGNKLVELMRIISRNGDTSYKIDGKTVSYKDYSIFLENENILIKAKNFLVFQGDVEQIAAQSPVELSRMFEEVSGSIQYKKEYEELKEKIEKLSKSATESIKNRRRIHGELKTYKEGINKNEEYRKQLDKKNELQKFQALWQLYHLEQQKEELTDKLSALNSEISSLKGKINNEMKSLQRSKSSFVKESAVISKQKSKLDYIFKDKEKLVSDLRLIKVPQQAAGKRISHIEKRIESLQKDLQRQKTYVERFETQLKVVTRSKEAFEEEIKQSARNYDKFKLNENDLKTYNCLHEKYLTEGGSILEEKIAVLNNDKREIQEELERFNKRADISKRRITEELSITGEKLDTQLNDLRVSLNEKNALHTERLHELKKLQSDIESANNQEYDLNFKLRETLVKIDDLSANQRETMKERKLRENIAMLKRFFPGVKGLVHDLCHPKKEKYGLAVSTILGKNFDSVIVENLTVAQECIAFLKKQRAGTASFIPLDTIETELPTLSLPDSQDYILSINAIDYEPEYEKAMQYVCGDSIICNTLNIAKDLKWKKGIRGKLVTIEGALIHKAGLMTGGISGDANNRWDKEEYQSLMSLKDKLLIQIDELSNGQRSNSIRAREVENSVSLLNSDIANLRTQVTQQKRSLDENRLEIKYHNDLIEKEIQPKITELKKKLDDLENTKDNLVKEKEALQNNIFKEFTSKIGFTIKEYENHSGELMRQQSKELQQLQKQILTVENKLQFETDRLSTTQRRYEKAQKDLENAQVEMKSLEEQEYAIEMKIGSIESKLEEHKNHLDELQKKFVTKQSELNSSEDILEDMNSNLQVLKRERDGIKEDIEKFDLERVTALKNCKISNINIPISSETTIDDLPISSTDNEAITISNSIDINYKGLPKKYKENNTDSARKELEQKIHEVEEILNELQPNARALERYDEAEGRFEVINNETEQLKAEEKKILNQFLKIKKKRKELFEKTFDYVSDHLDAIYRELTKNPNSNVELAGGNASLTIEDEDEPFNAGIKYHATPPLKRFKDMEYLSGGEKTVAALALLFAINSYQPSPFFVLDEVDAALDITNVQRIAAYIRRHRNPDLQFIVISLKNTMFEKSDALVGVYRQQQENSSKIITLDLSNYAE
Put plainly: cross-linking; CLMS with sulfo-SDA; cohesin, Tof1-Csm3 and Chl1 with or without Mrc1 at 300-350 nM, 30 °C 5 min, cross-linker 2 h at 4 °C, UV 365 nm; LC-MS/MS, 1% FDR at residue-pair level; two samples merged. As to conditions: both partners purified.

Another assay concerns the target T2, Smc3 (S. cerevisiae (budding yeast), UniProt P47037 1-1230).
T2 construct: Smc3, budding yeast; the Smc3 chain of m1; Stood in the cross-linking sample as a chain of cohesin; source: purified as part of cohesin, as previously described (Minamino et al. 2018)
T2 sequence (looked up): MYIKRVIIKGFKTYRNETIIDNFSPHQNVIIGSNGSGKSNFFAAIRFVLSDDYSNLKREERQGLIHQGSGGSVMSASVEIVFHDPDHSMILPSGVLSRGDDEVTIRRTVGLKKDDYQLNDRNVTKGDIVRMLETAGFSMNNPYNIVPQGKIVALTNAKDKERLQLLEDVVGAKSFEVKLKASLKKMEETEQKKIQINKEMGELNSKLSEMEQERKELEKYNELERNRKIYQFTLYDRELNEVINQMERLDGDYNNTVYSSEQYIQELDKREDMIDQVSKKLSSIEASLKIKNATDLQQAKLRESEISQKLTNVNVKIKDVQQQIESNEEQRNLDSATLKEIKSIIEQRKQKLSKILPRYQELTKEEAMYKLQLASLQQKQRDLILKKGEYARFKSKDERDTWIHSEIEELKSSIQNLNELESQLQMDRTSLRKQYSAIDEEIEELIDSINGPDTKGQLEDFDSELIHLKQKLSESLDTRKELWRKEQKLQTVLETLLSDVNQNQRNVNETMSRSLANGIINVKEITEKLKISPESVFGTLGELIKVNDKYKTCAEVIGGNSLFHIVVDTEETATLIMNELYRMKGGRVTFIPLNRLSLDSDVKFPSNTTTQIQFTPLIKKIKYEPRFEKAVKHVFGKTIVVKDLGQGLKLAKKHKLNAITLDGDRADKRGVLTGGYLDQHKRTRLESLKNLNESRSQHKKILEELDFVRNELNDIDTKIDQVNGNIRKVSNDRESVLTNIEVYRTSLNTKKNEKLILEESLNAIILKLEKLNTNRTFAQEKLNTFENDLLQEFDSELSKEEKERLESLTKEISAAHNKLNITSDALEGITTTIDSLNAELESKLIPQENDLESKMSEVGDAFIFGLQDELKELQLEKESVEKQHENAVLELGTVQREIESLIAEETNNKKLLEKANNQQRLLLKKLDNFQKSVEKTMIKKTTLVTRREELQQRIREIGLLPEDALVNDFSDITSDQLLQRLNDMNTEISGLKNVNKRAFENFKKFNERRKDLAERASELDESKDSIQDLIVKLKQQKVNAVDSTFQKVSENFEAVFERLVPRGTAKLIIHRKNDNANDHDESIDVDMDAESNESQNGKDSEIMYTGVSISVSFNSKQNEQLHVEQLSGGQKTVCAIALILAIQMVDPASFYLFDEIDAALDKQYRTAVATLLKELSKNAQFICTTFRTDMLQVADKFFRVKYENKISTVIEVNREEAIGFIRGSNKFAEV
Described as above. The note with it: both partners purified.

B1: Mrc1 (natural protein, S. cerevisiae (budding yeast), UniProt P25588 1-1096, looked up)
chain: MDDALHALSSLTAKKRTTTYKKVAVPILDENDNTNGNGPNDIDNPPELTGNGFLFANATLNRVKNRLEGKKAPEQNHNNGKDRSENSLPTQLISNLYDGGEELEKSEVKDNSYSEKNVSSSFTQTQRIPVSIQQDKVFNVPIHSVNDGKPTQLIKEDGLVNETSQALKTPLTTGRPGATQRIDSSGATSQTQPIKSIEPQSQIITTSSNHSNALSPKIPIIPTELIGTSPLFQSIQNRGPDTQMDVPPQTAHDEDKTQAIGIPQATHQEQKTQIDTVAQTLQDEVPHTLKIREIQSELASEDSKREKARNVEYKKPQKPIPTKKFFSKESFLADFDDSSSNEDDDIKLENAHPKPVQNDDELHENKSVELNLTDETRINEKRVPLLSSYANNLKREIDSSKCITLDLDSDSDEYGDDDMDSIKLSKDESVLPISQLSKATILNLKARLSKQNQKLSQRPNKSKDPKVDHNVLLNTLRKASRKQILDHQKEVIETKGLKLEDMAKEKEIVENLLEQEILRNKRIRQKEKRREKLEENDFQLNAHDSGSDSGSESSGFALSGNEIADYESSGSENDNRRESDSEKEDDEIILKQKKSHHVKHIINESDSDTEVEAKPKEKADESLPKRIAINLGHYGDNIGEDTDKFQETNVLDTQNIEEVMAERNTIENEVKDDVYVNEEADEAIRRQLIDKEKLQLKQKEKEHEAKIKELKKRGVTNFFEMEAEESEDEWHGIGGADGEGSDDYDSDLEKMIDDYSKNNFNPHEIREMLAAENKEMDIKMINKILYDIKNGGFRNKRAKNSLELELSDDDEDDVLQQYRLKRRELMRKRRLEIGDDAKLVKNPKSSAFFESMVEDIIEYKNPFGAEEEYNLDITSTATDLDTQDNSINVGDNTGNNEQKPVDQKNKKVIISEDFVQKSLSFLKSNNYEDFETDKELSRIQHGNDEAIEDLYTLKQNSSIKSFTNSQTDSTTSKTVNTIIDLEKRPEDEDEVENGDTSLVGVFKHPSIIKSFASRTDINDKFKEGNKTVKILKSYKTVGSSKASITYMGKTRKLIAPKRKTEGSHRYHHDHHNKKMKMKTKTKSNKLFESGQDSFDN
notes: Mrc1, budding yeast; also called Flag-tagged Mrc1; source: purified as previously described (Yeeles et al. 2017)
As for B1, the binding result with Smc1 and with Smc3 was “binds” throughout.

(Values after paper PMC10247859, “Replisome-cohesin interactions provided by the Tof1-Csm3 and Mrc1 cohesion establishment factors” (Chromosoma, 2023).)
